This is an account of results in patent US20240158510A1 (GOVERNING COUNCIL OF THE UNIVERSITY OF TORONTO, published 2024).

Read-outs that look alike come from different tables or passages of the source.

In assay [1] the target is T1, integrin αvβ3 expressed on CHO cells (UniProt P06756 31-1048; P05106 27-788, limits assumed). The assay is described as follows: cell-based or functional assay.
Assay [2] has as its target T2, integrin αvβ1 expressed on CHO cells (UniProt P06756 31-1048; P05556 21-798, limits assumed). In words: cell-based or functional assay.
For assay [3], the target named is T3, integrin αvβ5 expressed on CHO cells (UniProt P06756 31-1048; P18084 24-799, limits assumed). In words: cell-based or functional assay.
T3 sequence (P06756 31-1048 limits assumed, chain 1 of 2): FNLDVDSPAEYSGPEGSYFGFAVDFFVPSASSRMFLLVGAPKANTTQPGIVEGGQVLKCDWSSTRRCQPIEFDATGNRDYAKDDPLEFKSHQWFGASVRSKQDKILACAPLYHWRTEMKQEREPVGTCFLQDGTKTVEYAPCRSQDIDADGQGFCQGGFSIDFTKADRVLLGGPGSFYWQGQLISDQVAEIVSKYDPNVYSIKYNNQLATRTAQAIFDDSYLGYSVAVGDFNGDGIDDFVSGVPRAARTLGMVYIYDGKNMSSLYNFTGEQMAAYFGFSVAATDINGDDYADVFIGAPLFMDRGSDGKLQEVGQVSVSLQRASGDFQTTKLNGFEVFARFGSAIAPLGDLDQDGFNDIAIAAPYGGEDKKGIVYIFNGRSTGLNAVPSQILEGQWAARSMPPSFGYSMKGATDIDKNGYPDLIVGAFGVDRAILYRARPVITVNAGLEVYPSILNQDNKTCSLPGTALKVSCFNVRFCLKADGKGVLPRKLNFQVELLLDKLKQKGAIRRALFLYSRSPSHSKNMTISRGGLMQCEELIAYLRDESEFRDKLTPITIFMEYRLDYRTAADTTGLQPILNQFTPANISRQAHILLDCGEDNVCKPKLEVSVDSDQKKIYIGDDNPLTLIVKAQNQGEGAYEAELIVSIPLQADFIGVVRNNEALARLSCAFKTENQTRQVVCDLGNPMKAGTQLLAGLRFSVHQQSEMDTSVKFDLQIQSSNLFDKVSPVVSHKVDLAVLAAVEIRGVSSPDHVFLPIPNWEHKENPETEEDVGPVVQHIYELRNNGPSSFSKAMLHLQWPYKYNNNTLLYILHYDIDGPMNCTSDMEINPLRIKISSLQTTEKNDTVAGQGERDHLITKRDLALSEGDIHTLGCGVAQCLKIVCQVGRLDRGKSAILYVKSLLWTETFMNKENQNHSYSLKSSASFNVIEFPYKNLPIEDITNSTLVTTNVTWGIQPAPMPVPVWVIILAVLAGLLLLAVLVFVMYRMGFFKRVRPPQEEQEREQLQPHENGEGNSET
T3 sequence (P18084 24-799 limits assumed, chain 2 of 2): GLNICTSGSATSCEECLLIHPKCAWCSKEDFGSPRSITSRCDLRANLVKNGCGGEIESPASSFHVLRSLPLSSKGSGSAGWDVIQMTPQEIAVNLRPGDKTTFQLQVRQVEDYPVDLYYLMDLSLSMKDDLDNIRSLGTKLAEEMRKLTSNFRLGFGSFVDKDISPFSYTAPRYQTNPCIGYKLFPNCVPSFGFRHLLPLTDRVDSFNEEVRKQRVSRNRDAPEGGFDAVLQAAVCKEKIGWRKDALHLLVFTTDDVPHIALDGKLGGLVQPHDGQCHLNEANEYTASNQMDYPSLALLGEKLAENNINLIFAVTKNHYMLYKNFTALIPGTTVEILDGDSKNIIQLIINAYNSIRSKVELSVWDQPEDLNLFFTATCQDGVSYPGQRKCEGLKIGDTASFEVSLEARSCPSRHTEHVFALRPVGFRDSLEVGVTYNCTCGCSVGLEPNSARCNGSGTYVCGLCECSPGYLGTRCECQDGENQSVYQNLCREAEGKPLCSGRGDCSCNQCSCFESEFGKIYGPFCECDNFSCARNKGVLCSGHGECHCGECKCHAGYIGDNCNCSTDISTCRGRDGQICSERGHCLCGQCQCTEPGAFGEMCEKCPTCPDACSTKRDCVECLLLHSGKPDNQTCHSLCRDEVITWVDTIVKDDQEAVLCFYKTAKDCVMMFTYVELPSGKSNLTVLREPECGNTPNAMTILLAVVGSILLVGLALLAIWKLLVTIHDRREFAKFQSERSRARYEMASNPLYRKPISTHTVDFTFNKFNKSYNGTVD
The target in assay [4] is T4, integrin αvβ8 expressed on CHO cells (UniProt P06756 31-1048; P26012 43-769, limits assumed). The assay is described as follows: cell-based or functional assay.
T4 sequence (P06756 31-1048 limits assumed, chain 1 of 2): as the sequence (P06756 31-1048 limits assumed, chain 1 of 2) above
T4 sequence (P26012 43-769 limits assumed, chain 2 of 2): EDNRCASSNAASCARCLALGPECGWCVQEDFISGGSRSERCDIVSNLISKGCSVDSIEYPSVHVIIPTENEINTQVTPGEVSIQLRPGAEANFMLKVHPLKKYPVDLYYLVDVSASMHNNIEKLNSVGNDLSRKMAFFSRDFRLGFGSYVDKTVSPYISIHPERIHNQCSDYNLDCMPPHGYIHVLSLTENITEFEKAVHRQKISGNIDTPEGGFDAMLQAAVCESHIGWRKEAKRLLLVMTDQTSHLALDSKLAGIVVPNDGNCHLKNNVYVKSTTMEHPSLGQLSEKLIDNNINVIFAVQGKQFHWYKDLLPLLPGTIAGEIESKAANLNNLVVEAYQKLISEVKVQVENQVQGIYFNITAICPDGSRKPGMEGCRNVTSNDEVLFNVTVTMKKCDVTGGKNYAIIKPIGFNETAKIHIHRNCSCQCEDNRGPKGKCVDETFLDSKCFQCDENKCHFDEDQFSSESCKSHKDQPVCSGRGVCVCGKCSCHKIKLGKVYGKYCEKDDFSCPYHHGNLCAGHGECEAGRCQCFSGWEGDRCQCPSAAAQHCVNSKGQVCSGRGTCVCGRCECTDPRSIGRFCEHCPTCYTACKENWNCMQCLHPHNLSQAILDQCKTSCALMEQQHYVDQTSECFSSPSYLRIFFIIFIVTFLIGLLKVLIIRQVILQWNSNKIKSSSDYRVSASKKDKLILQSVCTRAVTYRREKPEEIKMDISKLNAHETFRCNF
For assay [5], the target named is T2, integrin αvβ1 expressed on CHO cells. In words: cell-based or functional assay. The source holds these as a separate data set.
Assay [6] deals with T1, integrin αvβ3 expressed on CHO cells. The assay is described as follows: flow cytometry titration on integrin-expressing CHO cells. The method, then:
(§1) Adherent cells were brought into suspension using PBS supplemented with 10 mM ethylenediaminetetraacetic acid (EDTA). The cells were washed with PBS, resuspended in PBS supplemented with 1% BSA, and incubated for 15 minutes at 4° C. The cells were labelled with 50 μl of Fab-phage culture supernatant, or 500 nM Fab, or IgG for 30 minutes at 4° C., then washed with PBS and resuspended in PBS supplemented with 1% BSA. Next, the cells were labelled with anti-Fab (for Fab-phage), or anti-Flag (for Fabs) or anti-Fc (for IgGs) conjugated Alexa-488 secondary Ab according to manufacturer's instructions. Data were collected using a CytoFLEX-S flow-cytometer using a 488-nm laser with 530/25 nm filter settings. The cells were analyzed in PBS, and all acquired live events were greater than 10,000 cells per sample. Quantitation analysis was carried out using FlowJo v10.2 Software. For Ab cellular titration analysis, the Abs were added to antigen positive cells in duplicate samples from a range of 500 pM to 1 μM. The mean fluorescence signal values were subtracted from the control antigen negative cells signals, and EC50 determined using Graph-pad Prism, where x is the Fab concentration: […]

Assay [7] has as its target T2, integrin αvβ1 expressed on CHO cells. The assay is described as above. On the procedure:
as §1

For assay [8], the target named is T5, integrin αvβ6 expressed on CHO cells (UniProt P06756 31-1048; P18564 22-788, limits assumed).
T5 construct: whole, on cells
T5 sequence (P06756 31-1048 limits assumed, chain 1 of 2): as the sequence (P06756 31-1048 limits assumed, chain 1 of 2) above
T5 sequence (P18564 22-788 limits assumed, chain 2 of 2): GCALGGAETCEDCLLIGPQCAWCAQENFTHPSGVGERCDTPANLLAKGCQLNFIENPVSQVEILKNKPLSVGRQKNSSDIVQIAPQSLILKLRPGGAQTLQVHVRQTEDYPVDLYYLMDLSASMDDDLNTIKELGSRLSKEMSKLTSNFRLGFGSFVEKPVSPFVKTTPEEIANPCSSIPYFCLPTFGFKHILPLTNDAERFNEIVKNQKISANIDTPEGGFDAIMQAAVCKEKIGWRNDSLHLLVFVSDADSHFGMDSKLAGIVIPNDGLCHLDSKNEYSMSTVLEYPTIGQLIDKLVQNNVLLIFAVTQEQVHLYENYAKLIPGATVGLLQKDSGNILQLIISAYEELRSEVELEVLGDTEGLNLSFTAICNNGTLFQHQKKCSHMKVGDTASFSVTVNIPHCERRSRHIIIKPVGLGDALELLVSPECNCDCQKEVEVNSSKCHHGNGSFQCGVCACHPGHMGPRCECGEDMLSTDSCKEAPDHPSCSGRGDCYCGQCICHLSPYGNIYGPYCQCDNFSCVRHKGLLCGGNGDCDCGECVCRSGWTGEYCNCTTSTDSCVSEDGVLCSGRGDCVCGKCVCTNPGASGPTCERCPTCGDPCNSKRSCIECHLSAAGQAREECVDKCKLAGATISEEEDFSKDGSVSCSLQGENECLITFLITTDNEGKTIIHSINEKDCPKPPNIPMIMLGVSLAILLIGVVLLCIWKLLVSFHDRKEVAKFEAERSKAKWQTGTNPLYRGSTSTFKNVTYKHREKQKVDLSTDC
The description is as above. The method, then:
as §1

In assay [9] the target is T3, integrin αvβ5 expressed on CHO cells. The description is as above. On the procedure: as §1
In assay [10] the target is T4, integrin αvβ8 expressed on CHO cells. The assay is described as above. On the procedure:
as §1

The target of assay [11] is T6, recombinant human integrin-αvβ1 (human, UniProt P06756 31-992; P05556 21-728, limits assumed).
T6 construct: also called Recombinant Human Integrins
In words: IgG titration on recombinant human integrin αvβ1, one site-total fit; assay format not stated. Set-up: Bmax: unit not given here.

For assay [12], the target named is T7, recombinant mouse integrin-αvβ1 (mouse, UniProt P43406 31-988; P09055 21-728, limits assumed).
T7 construct: also called Recombinant Mouse Integrins
In words: IgG titration on recombinant mouse integrin αvβ1, one site-total fit; assay format not stated.

Assay [13] concerns the target T2, integrin αvβ1 expressed on CHO cells. In words: flow cytometry titration on integrin-αvβ1 CHO cells (curves in FIG. 12K). On the procedure:
as §1

Assay [14] deals with T1, integrin αvβ3 expressed on CHO cells. The assay is described as follows: cell-based or functional assay. The source holds these as a separate data set.
Assay [15] addresses T2, integrin αvβ1 expressed on CHO cells. The assay is described as follows: cell-based or functional assay. The source holds these as a separate data set.
For assay [16], the target named is T5, integrin αvβ6 expressed on CHO cells. The assay is described as follows: cell-based or functional assay.
In assay [17] the target is T3, integrin αvβ5 expressed on CHO cells. The assay is described as follows: cell-based or functional assay. This is another data set of the same source.
Assay [18] deals with T4, integrin αvβ8 expressed on CHO cells. In words: cell-based or functional assay. The source holds these as a separate data set.
The target is the same in assay [19]. The assay is described as follows: flow cytometry titration on AvB8 CHO cells. The method, then: as §1
A general note: A flow cytometer gives signals particle by particle.

Assay [20] addresses T5, integrin αvβ6 expressed on CHO cells. In words: flow cytometry titration on AvB6 CHO cells. The method, then: as §1
For assay [21], the target named is T3, integrin αvβ5 expressed on CHO cells. The assay is described as follows: flow cytometry titration on AvB5 CHO cells. On the procedure:
as §1

Assay [22] concerns the target T1, integrin αvβ3 expressed on CHO cells. In words: flow cytometry titration on AvB3 CHO cells. On the procedure: as §1
For assay [23], the target named is T2, integrin αvβ1 expressed on CHO cells. The assay is described as follows: flow cytometry titration on AvB1 CHO cells. On the procedure: as §1
Assay [24] has the same target. In words: cell-based or functional assay. The source holds these as a separate data set.
Assay [25] shares this target. In words: cell-based or functional assay. The source holds these as a separate data set.
Assay [26] shares this target. The assay is described as follows: flow cytometry titration on integrin-αvβ1 CHO cells; binder taken from the context of FIG. 10 and Example 2. The method, then: as §1

T1 sequence (P06756 31-1048 limits assumed, chain 1 of 2): as the sequence (P06756 31-1048 limits assumed, chain 1 of 2) above
T1 sequence (P05106 27-788 limits assumed, chain 2 of 2): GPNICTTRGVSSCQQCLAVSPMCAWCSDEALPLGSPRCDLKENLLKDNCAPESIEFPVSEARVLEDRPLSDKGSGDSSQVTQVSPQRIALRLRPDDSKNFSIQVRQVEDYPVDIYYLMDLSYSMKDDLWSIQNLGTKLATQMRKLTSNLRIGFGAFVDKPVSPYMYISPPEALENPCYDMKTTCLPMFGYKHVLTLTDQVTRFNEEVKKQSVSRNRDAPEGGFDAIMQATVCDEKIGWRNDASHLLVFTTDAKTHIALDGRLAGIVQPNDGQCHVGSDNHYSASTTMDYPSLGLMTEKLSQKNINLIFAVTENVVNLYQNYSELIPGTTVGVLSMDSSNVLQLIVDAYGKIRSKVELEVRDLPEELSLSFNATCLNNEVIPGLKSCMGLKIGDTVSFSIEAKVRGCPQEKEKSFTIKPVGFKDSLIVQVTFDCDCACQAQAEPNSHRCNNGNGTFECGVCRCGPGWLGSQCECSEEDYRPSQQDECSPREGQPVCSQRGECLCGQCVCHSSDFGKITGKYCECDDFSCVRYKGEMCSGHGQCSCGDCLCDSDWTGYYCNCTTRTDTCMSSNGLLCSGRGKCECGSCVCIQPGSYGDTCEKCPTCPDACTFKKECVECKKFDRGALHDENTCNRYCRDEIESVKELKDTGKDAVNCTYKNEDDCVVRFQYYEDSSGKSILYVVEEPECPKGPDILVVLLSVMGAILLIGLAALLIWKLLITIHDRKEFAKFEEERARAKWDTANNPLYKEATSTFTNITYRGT
T2 sequence (P06756 31-1048 limits assumed, chain 1 of 2): as the sequence (P06756 31-1048 limits assumed, chain 1 of 2) above
T2 sequence (P05556 21-798 limits assumed, chain 2 of 2): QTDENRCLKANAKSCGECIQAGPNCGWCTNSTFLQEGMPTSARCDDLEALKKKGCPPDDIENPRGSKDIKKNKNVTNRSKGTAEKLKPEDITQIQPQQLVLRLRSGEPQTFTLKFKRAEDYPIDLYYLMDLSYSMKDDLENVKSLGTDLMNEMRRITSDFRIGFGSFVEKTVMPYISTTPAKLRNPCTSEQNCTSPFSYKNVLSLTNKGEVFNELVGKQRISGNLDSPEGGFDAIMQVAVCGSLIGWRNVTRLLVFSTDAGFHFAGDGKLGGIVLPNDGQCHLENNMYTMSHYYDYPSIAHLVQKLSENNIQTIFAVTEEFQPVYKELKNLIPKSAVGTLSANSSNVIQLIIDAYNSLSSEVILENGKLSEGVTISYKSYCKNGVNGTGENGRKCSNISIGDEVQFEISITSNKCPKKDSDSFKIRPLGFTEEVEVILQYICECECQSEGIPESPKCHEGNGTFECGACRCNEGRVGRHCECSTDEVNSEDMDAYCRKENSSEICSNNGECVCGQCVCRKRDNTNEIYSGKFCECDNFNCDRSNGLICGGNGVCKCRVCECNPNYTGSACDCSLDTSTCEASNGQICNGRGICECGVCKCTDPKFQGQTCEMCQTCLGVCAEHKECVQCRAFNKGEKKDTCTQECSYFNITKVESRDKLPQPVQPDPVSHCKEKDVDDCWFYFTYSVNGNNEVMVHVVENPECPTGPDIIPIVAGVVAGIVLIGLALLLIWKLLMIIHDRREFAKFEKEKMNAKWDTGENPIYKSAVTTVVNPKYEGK

B1: IgG clone 10404, hG1/hk (pSCSTa-hG1 (10404) heavy chain, pSCSTa-hK (10404) light chain) (antibody, V domains shown)
VH: EVQLVESGGGLVQPGGSLRLSCAASGFNLYSSSIHWVRQAPGKGLEWVAYIYPSYGYTSTYADSVKGRFTISADTSKNTAYLQMNSLRAEDTAVYYCARPAPYYSWYPAMDYWGQGTLVTVSS
VL: DIQMTQSPSSLSASVGDRVTITCRASQSVSSAVAWYQQKPGKAPKLLIYSASSLYSGVPSRFSGSRSGTDFTLTISSLQPEDFATYYCQQASGSPFTFGQGTKVEIKR
notes: Full-length human IgG1/kappa made in Expi293 cells
A word on the EC50: it is the concentration giving half of the maximal effect. The term Kd denotes a measure of binding affinity in units of concentration. Take B1: the “IC50, inhibition of CHO cell adhesion to LAP-TGFβ” value in assay [1] was 23.8 nM; in assay [2], 13.2 nM; in [3], 3.64 nM; in assay [4] it was < 1 nM. In addition, in assay [5], the “adhesion of integrin-αvβ1 CHO cells to LAP-TGFβ, normalised confluence, number over the bar, untreated = 100” value was determined as 46.2%. In addition, the EC50 in assay [6] was 13.1 nM; in assay [7] it was 2.43 nM; in assay [8], 2.96 nM; in [9], 2.45 nM; in [10], 14.3 nM. Moreover, the Bmax in assay [11] and in assay [12] was 1.09 each time. In addition, the dissociation constant Kd in assay [11] came out at 0.271 nM.

B2: IgG 11867 (antibody, V domains shown)
VH: EVQLVESGGGLVQPGGSLRLSCAASGFDFDSYAIHWVRQAPGKGLEWVAYFYPGHDYSTYADSVKGRFTISADTSKNTAYLQMNSLRAEDTAVYYCARPSPYFSWHQAMDYWGQGTLVTVSS
VL: DIQMTQSPSSLSASVGDRVTITCRASQSVSSAVAWYQQKPGKAPKLLIYSASSLYSGVPSRFSGSRSGTDFTLTISSLQPEDFATYYCQQATGSEVTFGQGTKVEIKR
notes: also called 11867 hG1
B2: the EC50 was 2.6 nM in [13]; 8.9 nM in assay [19]; 1.7 nM in assay [20]; 1.2 nM in assay [21]; 6.8 nM in [22]; 2.6 nM in [23]. Moreover, the “IC50, inhibition of CHO cell adhesion to LAP-TGFβ” value in [14] is 2.4 nM; in assay [15] it was 1.6 nM; in [16], 2.1 nM; in assay [17] it was 4.1 nM; in assay [18] it was 1.3 nM. Further, in assay [24], the “IC50, inhibition of integrin-αvβ1 CHO cell adhesion to LAP-TGFβ (curves in FIG. 12L)” value amounted to 2.9 nM.

B3: 10404/10392 (bispecific antibody, human IgG1, kappa)
heavy chain 10392, knob: EVQLVESGGGLVQPGGSLRLSCAASGFNIYYSSIHWVRQAPGKGLEWVASISSSSGSTSYADSVKGRFTISADTSKNTAYLQMNSLRAEDTAVYYCARSYYGGGYPYALDYWGQGTLVTVSSASTKGPSVFPLAPSSKSTSGGTAALGCLVKDYFPEPVTVSWNSGALTSGVHTFPAVLQSSGLYSLSSVVTVPSSSLGTQTYICNVNHKPSNTKVDKKVEPKSCDKTHTCPPCPAPELLGGPSVFLFPPKPKDTLMISRTPEVTCVVVDVSHEDPEVKFNWYVDGVEVHNAKTKPREEQYNSTYRVVSVLTVLHQDWLNGKEYKCKVSNKALPAPIEKTISKAKGQPREPMVFDLPPSREEMTKNQVSLWCMVKGFYPSDIAVEWESNGQPENNYKTTPPVLDSDGSFFLYSKLTVDKSRWQQGNVFSCSVMHEALHNHYTQKSLSLSPGK
heavy chain 10404, hole: EVQLVESGGGLVQPGGSLRLSCAASGFNLYSSSIHWVRQAPGKGLEWVAYIYPSYGYTSTYADSVKGRFTISADTSKNTAYLQMNSLRAEDTAVYYCARPAPYYSWYPAMDYWGQGTLVTVSSASTKGPSVFPLAPSSKSTSGGTAALGCLVKDYFPEPVTVSWNSGALTSGVHTFPAVLQSSGLYSLSSVVTVPSSSLGTQTYICNVNHKPSNTKVDKKVEPKSCDKTHTCPPCPAPELLGGPSVFLFPPKPKDTLMISRTPEVTCVVVDVSHEDPEVKFNWYVDGVEVHNAKTKPREEQYNSTYRVVSVLTVLHQDWLNGKEYKCKVSNKALPAPIEKTISKAKGQPREPQVYTLPPIRELMTSNQVSLSCAVKGFYPSDIAVEWESNGQPENNYKTTPPVLDSDGSFFLVSKLTVDKSRWQQGNVFSCSVMHEALHNHYTQKSLSLSPGK
light chain 10404: DIQMTQSPSSLSASVGDRVTITCRASQSVSSAVAWYQQKPGKAPKLLIYSASSLYSGVPSRFSGSRSGTDFTLTISSLQPEDFATYYCQQASGSPFTFGQGTKVEIKRTVAAPSVFIFPPSDEQLKSGTASVVCLLNNFYPREAKVQWKVDNALQSGNSQESVTEQDSKDSTYSLSSTLTLSKADYEKHKVYACEVTHQGLSSPVTKSFNRGEC
As for B3, the “IC50, inhibition of CHO cell adhesion to LAP-TGFβ” value in assay [1] was 24.2 nM; in assay [2], 9.83 nM; in [3] it was 18.2 nM; in assay [4], 55.1 nM. Besides, the “adhesion of integrin-αvβ1 CHO cells to LAP-TGFβ, normalised confluence, number over the bar, untreated = 100” value in [5] stood at 16.7%. Besides, the “IC50, inhibition of integrin-αvβ1 CHO cell adhesion to LAP-TGFβ; no antibody named on the panel, binder taken from the context of FIG. 10” value in [25] worked out at 2.91 nM. Also, in assay [26], the concentration giving a half-maximal response (EC50) worked out at 2.39 nM.
